The source of these data is patent US20150344570A1 (published 2015).

T1: FcγRIIb extracellular domain with C-terminal His tag (human, UniProt P31994 43-217)
T1 construct: extracellular domain; also called FcgRIIb; 2b
T1 sequence (looked up): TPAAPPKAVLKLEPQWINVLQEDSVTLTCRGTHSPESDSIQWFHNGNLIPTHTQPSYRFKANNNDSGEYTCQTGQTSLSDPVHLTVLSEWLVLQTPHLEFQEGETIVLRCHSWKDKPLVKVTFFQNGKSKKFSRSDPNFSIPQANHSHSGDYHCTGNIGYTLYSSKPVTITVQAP

B1: GpH7-A5/GpH7-B3 variant N325_01G/GpL16-k0 (antibody, human IgG1, kappa)
heavy 1: not shown
heavy 2: not shown
light: DIVMTQSPLSLPVTPGEPASISCQASESLVHSNRNTYLHWYLQKPGQSPQLLIYKVSNRFSGVPDRFSGSGSGTDFTLKISRVEAEDVGVYYCSQNTHVPPTFGQGTKVEIERTVAAPSVFIFPPSDEQLKSGTASVVCLLNNFYPREAKVQWKVDNALQSGNSQESVTEQDSKDSTYSLSSTLTLSKADYEKHKVYACEVTHQGLSSPVTKSFNRGEC
notes: also called He Ab N325_01G
B2: GpH7-A5/GpH7-B3 variant P238_04F/GpL16-k0 (antibody, human IgG1, kappa)
heavy 1: not shown
heavy 2: not shown
light: DIVMTQSPLSLPVTPGEPASISCQASESLVHSNRNTYLHWYLQKPGQSPQLLIYKVSNRFSGVPDRFSGSGSGTDFTLKISRVEAEDVGVYYCSQNTHVPPTFGQGTKVEIERTVAAPSVFIFPPSDEQLKSGTASVVCLLNNFYPREAKVQWKVDNALQSGNSQESVTEQDSKDSTYSLSSTLTLSKADYEKHKVYACEVTHQGLSSPVTKSFNRGEC
notes: also called He Ab P238_04F
B3: GpH7-A5/GpH7-B3 variant N325_09D/GpL16-k0 (antibody, human IgG1, kappa)
heavy 1: not shown
heavy 2: not shown
light: DIVMTQSPLSLPVTPGEPASISCQASESLVHSNRNTYLHWYLQKPGQSPQLLIYKVSNRFSGVPDRFSGSGSGTDFTLKISRVEAEDVGVYYCSQNTHVPPTFGQGTKVEIERTVAAPSVFIFPPSDEQLKSGTASVVCLLNNFYPREAKVQWKVDNALQSGNSQESVTEQDSKDSTYSLSSTLTLSKADYEKHKVYACEVTHQGLSSPVTKSFNRGEC
notes: also called He Ab N325_09D
B4: GpH7-A5/GpH7-B3 variant P238_03V/GpL16-k0 (antibody, human IgG1, kappa)
heavy 1: not shown
heavy 2: not shown
light: DIVMTQSPLSLPVTPGEPASISCQASESLVHSNRNTYLHWYLQKPGQSPQLLIYKVSNRFSGVPDRFSGSGSGTDFTLKISRVEAEDVGVYYCSQNTHVPPTFGQGTKVEIERTVAAPSVFIFPPSDEQLKSGTASVVCLLNNFYPREAKVQWKVDNALQSGNSQESVTEQDSKDSTYSLSSTLTLSKADYEKHKVYACEVTHQGLSSPVTKSFNRGEC
notes: also called He Ab P238_03V
B5: GpH7-A5/GpH7-B3 variant N325_06M/GpL16-k0 (antibody, human IgG1, kappa)
heavy 1: not shown
heavy 2: not shown
light: DIVMTQSPLSLPVTPGEPASISCQASESLVHSNRNTYLHWYLQKPGQSPQLLIYKVSNRFSGVPDRFSGSGSGTDFTLKISRVEAEDVGVYYCSQNTHVPPTFGQGTKVEIERTVAAPSVFIFPPSDEQLKSGTASVVCLLNNFYPREAKVQWKVDNALQSGNSQESVTEQDSKDSTYSLSSTLTLSKADYEKHKVYACEVTHQGLSSPVTKSFNRGEC
notes: also called He Ab N325_06M
B6: GpH7-A5/GpH7-B3 variant N325_08L/GpL16-k0 (antibody, human IgG1, kappa)
heavy 1: not shown
heavy 2: not shown
light: DIVMTQSPLSLPVTPGEPASISCQASESLVHSNRNTYLHWYLQKPGQSPQLLIYKVSNRFSGVPDRFSGSGSGTDFTLKISRVEAEDVGVYYCSQNTHVPPTFGQGTKVEIERTVAAPSVFIFPPSDEQLKSGTASVVCLLNNFYPREAKVQWKVDNALQSGNSQESVTEQDSKDSTYSLSSTLTLSKADYEKHKVYACEVTHQGLSSPVTKSFNRGEC
notes: also called He Ab N325_08L
B7: GpH7-A5/GpH7-B3 variant N325_03V/GpL16-k0 (antibody, human IgG1, kappa)
heavy 1: not shown
heavy 2: not shown
light: DIVMTQSPLSLPVTPGEPASISCQASESLVHSNRNTYLHWYLQKPGQSPQLLIYKVSNRFSGVPDRFSGSGSGTDFTLKISRVEAEDVGVYYCSQNTHVPPTFGQGTKVEIERTVAAPSVFIFPPSDEQLKSGTASVVCLLNNFYPREAKVQWKVDNALQSGNSQESVTEQDSKDSTYSLSSTLTLSKADYEKHKVYACEVTHQGLSSPVTKSFNRGEC
notes: also called He Ab N325_03V
B8: GpH7-A5/GpH7-B3 variant P238_09D/GpL16-k0 (antibody, human IgG1, kappa)
heavy 1: not shown
heavy 2: not shown
light: DIVMTQSPLSLPVTPGEPASISCQASESLVHSNRNTYLHWYLQKPGQSPQLLIYKVSNRFSGVPDRFSGSGSGTDFTLKISRVEAEDVGVYYCSQNTHVPPTFGQGTKVEIERTVAAPSVFIFPPSDEQLKSGTASVVCLLNNFYPREAKVQWKVDNALQSGNSQESVTEQDSKDSTYSLSSTLTLSKADYEKHKVYACEVTHQGLSSPVTKSFNRGEC
notes: also called He Ab P238_09D
B9: GpH7-A5/GpH7-B3 variant N325_07I/GpL16-k0 (antibody, human IgG1, kappa)
heavy 1: not shown
heavy 2: not shown
light: DIVMTQSPLSLPVTPGEPASISCQASESLVHSNRNTYLHWYLQKPGQSPQLLIYKVSNRFSGVPDRFSGSGSGTDFTLKISRVEAEDVGVYYCSQNTHVPPTFGQGTKVEIERTVAAPSVFIFPPSDEQLKSGTASVVCLLNNFYPREAKVQWKVDNALQSGNSQESVTEQDSKDSTYSLSSTLTLSKADYEKHKVYACEVTHQGLSSPVTKSFNRGEC
notes: also called He Ab N325_07I
B10: GpH7-A5/GpH7-B3 variant P238_15Y/GpL16-k0 (antibody, human IgG1, kappa)
heavy 1: not shown
heavy 2: not shown
light: DIVMTQSPLSLPVTPGEPASISCQASESLVHSNRNTYLHWYLQKPGQSPQLLIYKVSNRFSGVPDRFSGSGSGTDFTLKISRVEAEDVGVYYCSQNTHVPPTFGQGTKVEIERTVAAPSVFIFPPSDEQLKSGTASVVCLLNNFYPREAKVQWKVDNALQSGNSQESVTEQDSKDSTYSLSSTLTLSKADYEKHKVYACEVTHQGLSSPVTKSFNRGEC
notes: also called He Ab P238_15Y

The target in the experiment is T1, FcγRIIb extracellular domain with …. Kind of experiment: SPR (Biacore), relative binding. On the technique in general: Surface plasmon resonance follows binding to a sensor surface in real time, without labels.
In the case of B1, the He/Con_2b is 101 % of HeCon Ab GpH7-A5/GpH7-B3/GpL16-k0. In the case of B2, the He/Con_2b was 312 % of HeCon Ab GpH7-A5/GpH7-B3/GpL16-k0. Under B3 stands 124 % of HeCon Ab GpH7-A5/GpH7-B3/GpL16-k0; under B4, 120 % of HeCon Ab GpH7-A5/GpH7-B3/GpL16-k0; under B5, 217 % of HeCon Ab GpH7-A5/GpH7-B3/GpL16-k0.

For B6, the He/Con_2b was 197 % of HeCon Ab GpH7-A5/GpH7-B3/GpL16-k0. For the molecule B7, the He/Con_2b was 111 % of HeCon Ab GpH7-A5/GpH7-B3/GpL16-k0. Turning to B8, the He/Con_2b was 221 % of HeCon Ab GpH7-A5/GpH7-B3/GpL16-k0. B9: the He/Con_2b was 171 % of HeCon Ab GpH7-A5/GpH7-B3/GpL16-k0. Turning to B10, the He/Con_2b is 218 % of HeCon Ab GpH7-A5/GpH7-B3/GpL16-k0.
